Article PMC11546984

Experiments:
Crovalimab (human) [1] = assay: SPR; Biacore T200, 37 °C, pH 5.8; antibodies captured by goat anti-human IgG (Fc) on a CM4 chip (50-80 RU); recombinant human C5 as analyte, three-fold dilutions from 135 nM; 20 mM ACES, 150 mM NaCl, 1.2 mM CaCl2, 0.05% Tween 20, 0.005% NaN3; 1:1 binding model
Crovalimab (human) [2] = assay: SPR; Biacore T200, 37 °C, pH 7.4; antibodies captured by goat anti-human IgG (Fc) on a CM4 chip (50-80 RU); recombinant human C5 as analyte, three-fold dilutions from 27 nM; 20 mM ACES, 150 mM NaCl, 1.2 mM CaCl2, 0.05% Tween 20, 0.005% NaN3; 1:1 binding model

Crovalimab (human), sequence (light, as listed by the source, chain 2 of 2, other chains not shown): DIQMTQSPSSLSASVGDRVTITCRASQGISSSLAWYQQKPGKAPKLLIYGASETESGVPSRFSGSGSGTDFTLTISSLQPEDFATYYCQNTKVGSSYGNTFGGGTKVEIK

Kd (Crovalimab (human) [1]): 132 nM
koff (Crovalimab (human) [1]): 0.0164 s⁻¹
kon (Crovalimab (human) [1]): 125000 M⁻¹ s⁻¹
Kd (Crovalimab (human) [2]): 0.166 nM
koff (Crovalimab (human) [2]): 0.000123 s⁻¹
kon (Crovalimab (human) [2]): 741000 M⁻¹ s⁻¹
Substance: Recombinant human C5 (natural protein)
